The values that follow come from patent US20200057048A1 (published 2020).

For the test, the target named is T1, human islet-specific glucose-6-phosphatase catalytic subunit-related protein (IGRP) peptide on HLA-DRA*01:01 … (human).
T1 peptide: QHLQKDYRAYYTF
The experiment in a line: multimer staining.

Protocol: Three million transduced and sorted GP+envAm12 were plated per well of a 6 well plate in a final volume of 3 ml. Next day 100,000 JURMA-hCD4 were co-cultured with the pre-plated transduced GP+envAm12 in a final volume of 3 ml supplemented with 8 ug/ml of polybrene. This co-culture was maintained during two weeks changing the media every 2 or 3 days. After co-culture, JURMA-hCD4 cells were harvested analyzed by flow cytometry and sorted for high transgene expression. Cells were then stained with PE labeled heterodimers.

B1: IGRP13-25 TCR (TCR, V domains shown)
Valpha: DQQVKQNSPSLSVQEGRISILNCDYTNSMFDYFLWYKKYPAEGPTFLISISSIKDKNEDGRFTVFLNKSAKHLSLHIVPSQPGDSAVYFCAATNSGGSNYKLTFGKGTLLTVNP
Vbeta: DGGITQSPKYLFRKEGQNVTLSCEQNLNHDAMYWYRQDPGQGLRLIYYSQIVNDFQKGDIAEGYSVSREKKESFPLTVTSAQKNPTAFYLCASGGRVYQPQHFGDGTRLSIL
As for B1, the binding result was “recognises”.
